Values quoted from earlier work, collected in article PMC3416887.

Biological target: FibP (Homo sapiens) (UniProt P02679)

For thrombin (from UniProt P00734), the Kd is given as 630 nM.
